Experiment [1] deals with recombinant human TIGIT extracellular membrane protein with a C-terminal histidine tag (human) (UniProt Q495A1). Description: competitive ELISA, TIGIT-His coated, competitor fixed biotin-CD155-Fc (signal), mAb at 5 µg/mL. In general terms: In an ELISA, binding on a coated surface is turned into a signal by an enzyme label.
For experiment [2] the target is unchanged. The experiment in a line: competitive ELISA, TIGIT-His coated, competitor fixed biotin-CD155-Fc (signal), mAb at 10 µg/mL.
The target is the same in experiment [3]. The experiment in a line: competitive ELISA, TIGIT-His coated, competitor fixed biotin-CD155-Fc (signal), mAb at 2.5 µg/mL.
Experiment [4] has the same target. Description: competitive ELISA, TIGIT-His coated, competitor fixed biotin-CD155-Fc (signal), mAb at 1.25 µg/mL.
Experiment [5] has the same target. Description: competitive ELISA, TIGIT-His coated, competitor fixed biotin-CD155-Fc (signal), mAb at 0.005 µg/mL.
The target is the same in experiment [6]. The experiment in a line: competitive ELISA, TIGIT-His coated, competitor fixed biotin-CD155-Fc (signal), mAb at 0.010 µg/mL.
Experiment [7] shares this target. The experiment in a line: competitive ELISA, TIGIT-His coated, competitor fixed biotin-CD155-Fc (signal), mAb at 0.019 µg/mL.
Experiment [8] has the same target. The experiment in a line: competitive ELISA, TIGIT-His coated, competitor fixed biotin-CD155-Fc (signal), mAb at 0.039 µg/mL.
The target is the same in experiment [9]. Description: competitive ELISA, TIGIT-His coated, competitor fixed biotin-CD155-Fc (signal), mAb at 0.078 µg/mL.
Experiment [10] shares this target. The experiment in a line: competitive ELISA, TIGIT-His coated, competitor fixed biotin-CD155-Fc (signal), mAb at 0.156 µg/mL.
The target is the same in experiment [11]. Description: competitive ELISA, TIGIT-His coated, competitor fixed biotin-CD155-Fc (signal), mAb at 0.312 µg/mL.
The target is the same in experiment [12]. Description: competitive ELISA, TIGIT-His coated, competitor fixed biotin-CD155-Fc (signal), mAb at 0.625 µg/mL.

Here are results for one substance from patent US20230272064A1.

recombinant human TIGIT extracellular membrane protein with a C-terminal histidine tag (human), sequence (Q495A1 22-141): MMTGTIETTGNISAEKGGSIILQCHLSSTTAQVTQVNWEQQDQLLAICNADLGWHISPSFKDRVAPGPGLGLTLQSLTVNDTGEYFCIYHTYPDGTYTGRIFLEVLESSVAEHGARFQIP

As to anti-VEGF monoclonal antibody hPV19, the OD at 492 nm in experiment [1] was 1.1 OD; in [2], 1.11 OD; in [3] it was 1.07 OD; in experiment [4], 1.08 OD; in experiment [5], 1.11 OD; in experiment [6] it was 1.1 OD. Also, the OD at 492 nm was found to be 1.08 OD in [7]; 1.05 OD in experiment [8]; 1.05 OD in experiment [9]; 1.05 OD in experiment [10]; 1.03 OD in experiment [11]; 1.06 OD in experiment [12].
